Molecular target: not2_yeast CDC36 (UniProt P06100)
Chain of UniProt P06100 (P06100 whole entry): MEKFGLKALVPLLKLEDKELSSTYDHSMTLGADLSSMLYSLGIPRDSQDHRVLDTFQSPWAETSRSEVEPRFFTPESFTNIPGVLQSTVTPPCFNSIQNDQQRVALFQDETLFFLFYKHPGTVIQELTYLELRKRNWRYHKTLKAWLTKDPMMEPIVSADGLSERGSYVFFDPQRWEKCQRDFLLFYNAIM

Row | Substance | effect of a mutation on the interaction
1 | General negative regulator of transcription subunit 1 (Saccharomyces cerevisiae), P25655 F1751E | disrupting interaction strength
2 | General negative regulator of transcription subunit 1 (Saccharomyces cerevisiae), P25655 R1811E;L1814E | disrupting interaction strength

Source: IntAct's records for PubMed 24121231
